US20210277118A1 (Daiichi Sankyo, published 2021)

Assays:
[1] = target: T1, monkey CD3 epsilon/delta expressed on transfected Lenti-X293T cells (cynoCD3epsilon-pcDNA3.1 and … (monkey, UniProt Q95LI5 22-198; Q95LI8 22-171); experiment: flow cytometry on transfected Lenti-X293T cells, hybridoma supernatant
T1 construct: whole, on cells
Description: Flow cytometry analysis of binding activity to monkey CD3. The monkey CD3 binding specificity of the antibody produced by each hybridoma determined to produce the antibody binding to human CD3 was further confirmed by flow cytometry. Each Lenti-X293T cell suspension was added at a concentration of 100 μL/well to a 96-well U-bottomed microplate and centrifuged to remove a supernatant. The cynoCD3c-pcDNA3.1- and cynoCD3δ-pcDNA3.1-transfected Lenti-X293T cells or the pcDNA3.1-DEST-transfected Lenti-X293T cells were suspended by the addition of the hybridoma culture supernatant and left standing at 4° C. for 1 hour. The cells were washed once with PBS containing 5% FBS, then suspended by the addition of Anti-Rat IgG FITC conjugate diluted 500-fold with PBS containing 5% FBS, and left standing at 4° C. for 30 minutes. The cells were washed twice with PBS containing 5% FBS and then resuspended in PBS containing 5% FBS and 2 μg/ml 7-aminoactinomycin D, followed by detection using a flow cytometer. The data was analyzed using Flowjo. After removal of 7-aminoactinomycin D-positive dead cells by gating, the FITC fluorescence intensity of live cells was plotted to a histogram.

[2] = target: T2, human CD3 epsilon/delta expressed on transfected cells (hCD3epsilon-pcDNA3.1 and hCD3delta-pcDNA3.1 in … (human, UniProt P07766 23-207; P04234 22-171); experiment: cell ELISA and flow cytometry on transfected cells, hybridoma supernatant
T2 construct: whole, on cells
T2 sequence (P07766 23-207, stated change not applied, chain 1 of 2): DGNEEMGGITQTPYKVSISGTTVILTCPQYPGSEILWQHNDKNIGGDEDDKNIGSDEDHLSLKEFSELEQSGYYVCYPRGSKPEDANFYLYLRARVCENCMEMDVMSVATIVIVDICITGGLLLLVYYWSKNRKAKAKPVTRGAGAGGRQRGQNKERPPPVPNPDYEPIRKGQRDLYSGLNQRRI
T2 sequence (P04234 22-171, stated change not applied, chain 2 of 2): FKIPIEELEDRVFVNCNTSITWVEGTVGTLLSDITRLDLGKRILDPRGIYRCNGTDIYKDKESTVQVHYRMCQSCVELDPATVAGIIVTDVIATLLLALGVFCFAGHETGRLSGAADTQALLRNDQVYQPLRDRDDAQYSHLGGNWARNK

T1 sequence (Q95LI5 22-198, stated change not applied, chain 1 of 2): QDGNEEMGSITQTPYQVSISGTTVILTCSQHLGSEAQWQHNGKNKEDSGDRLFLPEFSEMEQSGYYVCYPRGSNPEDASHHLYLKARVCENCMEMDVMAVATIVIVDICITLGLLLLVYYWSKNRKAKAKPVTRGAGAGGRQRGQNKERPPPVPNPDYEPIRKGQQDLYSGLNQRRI
T1 sequence (Q95LI8 22-171, stated change not applied, chain 2 of 2): as the sequence (P04234 22-171, stated change not applied, chain 2 of 2) above, with I5V, N15K, I20V, S32T, D33N, I34N, T64A, S74N, V83L, H141R counted along it

B1: rat anti-CD3 monoclonal antibody C3-147 (antibody, rat IgG2b, V domains shown)
VH: EVQLVESGGGLVQPGRALKLSCVVSGVTFNYYGMSWIRQAPGKGLEWVASITNSGGRIYYPDSVKGRFTISRENTQKTLYLQMNSLRSEDTATYYCTLDGRDGWVAYWGQGTLVTVSS
VL: QFVLTQPNSVSTNLGTTVELSCKRNTGNIGSNYVNWYQQHEGRSPTTIIYRDDKRPDGVSDRFSGSIDRSSKSALLTINNVQTEDEADYFCQSYSSGFIFGGGTKLTVL
notes: Rat IgG2b with lambda chains (printed 'X chains'); tested as hybridoma culture supernatant
B1: binds [1]; binds [2].
